One substance from US20230250154A1 can be followed below.

In experiment [1] the target is ADAMTS5 (human) (UniProt Q9UNA0). Description: cell-based or functional assay.
Experiment [2] has as its target ADAMTS4 (human) (UniProt O75173). Description: cell-based or functional assay.

ADAMTS5 (human), sequence (Q9UNA0 262-622 limits assumed): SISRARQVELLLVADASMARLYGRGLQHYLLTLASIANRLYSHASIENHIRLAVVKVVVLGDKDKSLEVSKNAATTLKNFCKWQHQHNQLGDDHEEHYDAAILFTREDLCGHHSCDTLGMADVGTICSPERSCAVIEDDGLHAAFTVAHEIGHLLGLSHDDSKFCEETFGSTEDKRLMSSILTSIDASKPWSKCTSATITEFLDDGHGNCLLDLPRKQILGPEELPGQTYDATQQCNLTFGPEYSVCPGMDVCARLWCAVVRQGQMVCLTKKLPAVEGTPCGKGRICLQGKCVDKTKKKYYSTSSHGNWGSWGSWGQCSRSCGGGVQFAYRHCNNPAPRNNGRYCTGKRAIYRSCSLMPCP
ADAMTS4 (human), sequence (O75173 213-685 limits assumed): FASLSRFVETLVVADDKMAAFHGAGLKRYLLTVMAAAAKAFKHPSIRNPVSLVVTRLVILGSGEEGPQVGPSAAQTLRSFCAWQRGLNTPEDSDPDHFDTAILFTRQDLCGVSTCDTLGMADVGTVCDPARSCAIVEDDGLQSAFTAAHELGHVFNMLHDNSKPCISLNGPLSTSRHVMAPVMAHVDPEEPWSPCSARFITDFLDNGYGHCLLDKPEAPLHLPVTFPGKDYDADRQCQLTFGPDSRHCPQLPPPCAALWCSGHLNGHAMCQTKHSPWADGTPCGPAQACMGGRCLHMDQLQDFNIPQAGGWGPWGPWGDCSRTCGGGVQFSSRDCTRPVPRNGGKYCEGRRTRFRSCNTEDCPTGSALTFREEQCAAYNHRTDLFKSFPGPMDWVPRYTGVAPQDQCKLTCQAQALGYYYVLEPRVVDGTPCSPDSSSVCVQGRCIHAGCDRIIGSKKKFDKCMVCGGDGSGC

In the case of “purified human A2M (from UniProt P01023 24-1474)”, in experiment [1], the IC50, inhibition of cartilage catabolism in bovine cartilage explants worked out at 7000 µg/mL; the IC50 needed to inhibit cartilage catabolism was 7 µg/mL; the Maximum inhibition of cartilage catabolism in bovine cartilage explants was 90%. For the same substance, the IC50 needed to inhibit cartilage catabolism in experiment [2] stood at 3 µg/mL.
